Target: full-length (MLD-containing) EBOV glycoprotein GP1,2, wild type (Ebola virus (EBOV), UniProt Q05320)
Experiment: immunostaining of cells or tissue
Conditions: one partner purified

Sequence of full-length (MLD-containing) EBOV glycoprotein GP1,2, wild type (Q05320 33-676): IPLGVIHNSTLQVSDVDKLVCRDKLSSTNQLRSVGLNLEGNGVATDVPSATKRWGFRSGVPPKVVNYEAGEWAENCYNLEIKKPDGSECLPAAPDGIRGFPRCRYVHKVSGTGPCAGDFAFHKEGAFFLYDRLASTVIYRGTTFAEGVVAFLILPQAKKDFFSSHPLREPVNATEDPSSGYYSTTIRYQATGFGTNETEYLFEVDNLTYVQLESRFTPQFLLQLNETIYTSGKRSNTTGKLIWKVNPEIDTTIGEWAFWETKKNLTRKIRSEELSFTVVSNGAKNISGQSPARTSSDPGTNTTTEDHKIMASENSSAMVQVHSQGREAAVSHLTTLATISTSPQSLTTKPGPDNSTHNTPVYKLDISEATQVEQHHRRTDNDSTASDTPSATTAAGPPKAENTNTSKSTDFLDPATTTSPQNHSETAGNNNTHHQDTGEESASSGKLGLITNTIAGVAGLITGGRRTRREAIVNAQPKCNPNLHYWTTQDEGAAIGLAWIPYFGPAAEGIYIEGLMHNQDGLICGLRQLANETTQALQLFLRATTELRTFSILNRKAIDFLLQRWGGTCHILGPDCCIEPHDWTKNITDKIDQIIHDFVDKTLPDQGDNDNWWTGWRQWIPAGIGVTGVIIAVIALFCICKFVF

B1: mAb 9.6.3A6 (3A6 IgG) (antibody, V domains shown)
VH: EVQLLESGGGLVKPGGSLRLSCAASGFTFNEYMMNWVRQPPGKGLEWVSSISGTSTYINYADSVKGRFTISRDNAKNSLYLQMNSLRSDDTAMYYCARGSTGGYWGQGTLITVSS
VL: DIVMTQTPLSSAVTLGQPASISCRSSQRLVHSDGNTYLSWLHQRPGQPPRLLIYKVSLRFSGVPDRFSGSGAGTDFTLKISRVEAEDVGIYYCMQATQFPLTFGGGTKVEIK
notes: copies: 2 + 2
B1: binds.

From paper PMC11791206 (Nature Communications, 2025)
